The record followed here is patent US20220315920.

The test system of the data set is TfuCascade (Cse2 N23A, Cas7-NLS) + TfuCas3 (Type I-E) Cse2 N23A (Thermobifida fusca). Nature of the data set: cell_activity. The settings on record: PAM AAG; for activity (% editing (6-TG resistance)): HAP1 cells RNP.

Regarding “AUGGACCGAAGCCGAGGCUCCCCCAGCGAAGCCCCUUUCCGUGAGCCCCACGCACGUGGG / AAGAAGCCGAGGCTCCCCCAGCGAAGCCCCTTTCC / GGAAAGGGGCTTCGCTGGGGGAGCCTCGGCTTCTT [crRNA HPRT-G2 ; HPRT target G2 (PAM+protospacer)]”, the activity (% editing (6-TG resistance)) came to 32.

For “AUGGACCGACCUUGCACUACCUGUGGCUUCCAUUUUCCUGGUGAGCCCCACGCACGUGGG / AAGACCTTGCACTACCTGTGGCTTCCATTTTCCTG / CAGGAAAATGGAAGCCACAGGTAGTGCAAGGTCTT [crRNA HPRT-G1 ; HPRT target G1 (PAM+protospacer)]”, the activity (% editing (6-TG resistance)) came to 67.

Take “AUGGACCGCUGGACAUCACCUCCCACAACGAGGACUACACGUGAGCCCCACGCACGUGGG / AAGCTGGACATCACCTCCCACAACGAGGACTACAC / GTGTAGTCCTCGTTGTGGGAGGTGATGTCCAGCTT [crRNA tdTomato ; tdTomato target (PAM+protospacer)]”: the activity (% tdTomato-negative cells) (hESC RNP) was 2.7.

For the sequence “AUGGACCGGCUACGUCCAGGAGCGCACCAUCUUCUUCAAGGUGAGCCCCACGCACGUGGG / AAGGCTACGTCCAGGAGCGCACCATCTTCTTCAAG / CTTGAAGAAGATGGTGCGCTCCTGGACGTAGCCTT [crRNA GFP-G1 ; EGFP target G1 (PAM+protospacer)]”, for the setting “hESC RNP electroporation, 80 pmol Cascade, 20 pmol Cas3, 7.3% in FIG. 1D”, the activity (% EGFP-negative cells) stood at 13.1.

As for “AUGGACCGUCGAUGCCCUUCAGCUCGAUGCGGUUCACCAGGUGAGCCCCACGCACGUGGG / AAGTCGATGCCCTTCAGCTCGATGCGGTTCACCAG / CTGGTGAACCGCATCGAGCTGAAGGGCATCGACTT [crRNA GFP-G2 ; EGFP target G2 (PAM+protospacer)]”, under “hESC RNP”, the activity (% EGFP-negative cells) is 2.7.
